Experimental data reported in US20250145720A1.

Tests used:
[1] = target: mouse FcRn, biotinylated extracellular domain (FcRnECDHis-B2M-BIO) (mouse) (UniProt Q61559); experiment: ELISA on coated mouse FcRn at pH 6.0, apparent affinity
[2] = target: human complement component C1q (human) (UniProt P02745); experiment: C1q ELISA, antibody coated in dilution series, 3% pooled human serum
[3] = target: human complement component C1q (human) (UniProt P02745); experiment: FACS, C1q on antibody-opsonized Daudi cells, Exp. 1
[4] = target: human complement component C1q (human) (UniProt P02745); experiment: FACS, C1q on antibody-opsonized Daudi cells, Exp. 11
[5] = target: human complement component C1q (human) (UniProt P02745); experiment: FACS, C1q on antibody-opsonized Daudi cells, Exp. 10
[6] = target: human complement component C1q (human) (UniProt P02745); experiment: cell-based or functional assay
[7] = target: human complement component C1q (human) (UniProt P02745); experiment: FACS, C1q on antibody-opsonized Raji cells, Exp. 1
[8] = target: human complement component C1q (human) (UniProt P02745); experiment: FACS, C1q on antibody-opsonized Raji cells, Exp. 3
[9] = target: human complement component C1q (human) (UniProt P02745); experiment: FACS, C1q on antibody-opsonized Daudi cells, Exp. 7
[10] = target: human complement component C1q (human) (UniProt P02745); experiment: FACS, C1q on antibody-opsonized Daudi cells, average
[11] = target: human complement component C1q (human) (UniProt P02745); experiment: FACS, C1q on antibody-opsonized Daudi cells, ranking table
[12] = target: human complement component C1q (human) (UniProt P02745); experiment: FACS, C1q on antibody-opsonized Daudi cells, Exp. 8
[13] = target: human complement component C1q (human) (UniProt P02745); experiment: FACS, C1q on antibody-opsonized Daudi cells, Exp. 6
[14] = target: human complement component C1q (human) (UniProt P02745); experiment: FACS, C1q on antibody-opsonized Raji cells, average
[15] = target: human complement component C1q (human) (UniProt P02745); experiment: FACS, C1q on antibody-opsonized Daudi cells, Exp. 2
[16] = target: human complement component C1q (human) (UniProt P02745); experiment: FACS, C1q on antibody-opsonized Daudi cells, Exp. 3
[17] = target: human complement component C1q (human) (UniProt P02745); experiment: FACS, C1q on antibody-opsonized Raji cells, Exp. 2
[18] = target: human complement component C1q (human) (UniProt P02745); experiment: FACS, C1q on antibody-opsonized Daudi cells, Exp. 4
[19] = target: human complement component C1q (human) (UniProt P02745); experiment: FACS, C1q on antibody-opsonized Daudi cells, ranking table; no reliable fit
[20] = target: human complement component C1q (human) (UniProt P02745); experiment: FACS, C1q on antibody-opsonized Daudi cells, Exp. 9

Chain of mouse FcRn, biotinylated extracellular domain (FcRnECDHis-B2M-BIO) (mouse) (Q61559 22-297): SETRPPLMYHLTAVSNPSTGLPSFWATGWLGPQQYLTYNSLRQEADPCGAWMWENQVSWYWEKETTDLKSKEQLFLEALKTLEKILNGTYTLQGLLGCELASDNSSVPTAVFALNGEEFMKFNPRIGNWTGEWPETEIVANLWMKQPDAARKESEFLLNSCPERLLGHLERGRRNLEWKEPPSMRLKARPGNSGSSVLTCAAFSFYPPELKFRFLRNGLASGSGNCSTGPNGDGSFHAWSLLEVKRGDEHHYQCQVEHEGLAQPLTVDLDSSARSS
Chain of human complement component C1q (human) (P02745 23-245 limits assumed, chain 1 of 3): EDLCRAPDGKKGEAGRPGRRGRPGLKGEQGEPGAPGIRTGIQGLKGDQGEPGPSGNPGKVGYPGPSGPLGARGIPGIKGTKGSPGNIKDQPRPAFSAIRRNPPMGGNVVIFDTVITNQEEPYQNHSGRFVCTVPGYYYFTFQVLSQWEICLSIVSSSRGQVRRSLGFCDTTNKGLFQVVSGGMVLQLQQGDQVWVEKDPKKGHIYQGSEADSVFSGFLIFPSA
Chain of human complement component C1q (human) (P02746 28-253 limits assumed, chain 2 of 3, further chain): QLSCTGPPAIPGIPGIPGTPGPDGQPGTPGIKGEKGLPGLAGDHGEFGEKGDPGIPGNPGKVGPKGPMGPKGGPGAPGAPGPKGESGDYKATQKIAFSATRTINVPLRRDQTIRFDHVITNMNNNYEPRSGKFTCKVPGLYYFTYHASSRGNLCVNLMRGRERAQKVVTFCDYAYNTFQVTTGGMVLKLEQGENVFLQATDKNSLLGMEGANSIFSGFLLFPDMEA
Chain of human complement component C1q (human) (P02747 29-245 limits assumed, chain 3 of 3, further chain): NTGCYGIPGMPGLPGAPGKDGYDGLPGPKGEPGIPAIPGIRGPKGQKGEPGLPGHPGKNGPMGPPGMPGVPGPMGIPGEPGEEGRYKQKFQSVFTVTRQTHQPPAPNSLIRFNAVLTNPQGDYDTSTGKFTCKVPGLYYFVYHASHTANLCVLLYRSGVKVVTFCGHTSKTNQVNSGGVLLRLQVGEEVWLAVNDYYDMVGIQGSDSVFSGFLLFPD

EC50 [1] [µg/mL]	CH50 (C1q concentration giving 50% lysis), CDC on Raji cells in C1q-depleted serum [6] [µg/mL]	EC50 of CDC on Daudi cells, 20% normal human serum [6] [µg/mL]	EC50 of CDC on Raji cells, 20% normal human serum [6] [µg/mL]	Kd [10] [nM]	Kd [11] [nM]	other results	Substance
0.14							IgG1-005 (HuMab 005, wild type) (antibody)
0.1							IgG1-005-E345K (antibody)
0.11							IgG1-005-E345N (antibody)
0.12							IgG1-005-E345Q (antibody)
0.09							IgG1-005-E345R (antibody)
0.13							IgG1-005-E345Y (antibody)
0.11							IgG1-005-E430F (antibody)
0.13							IgG1-005-E430G (antibody)
0.11							IgG1-005-E430H (antibody)
0.14							IgG1-005-E430S (antibody)
0.15							IgG1-005-E430T (antibody)
0.31							IgG1-005-K439E (antibody)
0.28							IgG1-005-P247G (antibody)
0.11							IgG1-005-S440K (antibody)
0.15							IgG1-005-S440Y (antibody)
	0.49	0.48	1.54			EC50 [2]: 2.05 µg/mL; Kd [3]: 7.7 nM; Kd [4]: 13.3 nM; Kd [5]: 11.8 nM; Kd [7]: 4.8 nM; Kd [8]: 10.9 nM	IgG1-7D8 (HuMab-7D8, wild type) (antibody)
	0.03	0.04	0.16	1.7	1.7	Kd [9]: 0.17 nM; Kd [5]: 2.7 nM	IgG1-7D8-E345R (antibody)
	0.77	0.76	2.96	2.3	2.3	Kd [9]: 1.18 nM; Kd [12]: 1.13 nM	IgG1-7D8-E382R (antibody)

EC50 [1] [µg/mL]	CH50 (C1q concentration giving 50% lysis), CDC on Raji cells in C1q-depleted serum [6] [µg/mL]	EC50 of CDC on Daudi cells, 20% normal human serum [6] [µg/mL]	EC50 of CDC on Raji cells, 20% normal human serum [6] [µg/mL]	Kd [10] [nM]	Kd [11] [nM]	other results	Substance
	22.5	2.12	17.4	74	74	Kd [13]: 77 nM; Kd [4]: 71 nM	IgG1-7D8-G385D (antibody)
	> 30	3.44	22.6	118	118	EC50 [2]: 3.33 µg/mL; Kd [3]: 168 nM; Kd [14]: 97.9 nM; Kd [15]: 76.1 nM; Kd [16]: 45.2 nM; Kd [17]: 85 nM; Kd [7]: 125 nM; Kd [8]: 84 nM; Kd [18]: 181 nM	IgG1-7D8-H433A (antibody)
	0.96	0.81	2.22			EC50 [2]: 2.27 µg/mL; Kd [3]: 7.8 nM; Kd [14]: 7.3 nM; Kd [15]: 10.9 nM; Kd [16]: 5 nM; Kd [17]: 9.9 nM; Kd [7]: 5.4 nM; Kd [18]: 10.9 nM	IgG1-7D8-H435A (antibody)
	0.24	0.28	0.61			EC50 [2]: 1.24 µg/mL; Kd [15]: 8.7 nM; Kd [16]: 2.6 nM; Kd [18]: 3 nM	IgG1-7D8-H435R (antibody)
	11.2	0.79	5.55	21.5	21.5	EC50 [2]: 2.56 µg/mL; Kd [3]: 33 nM; Kd [14]: 18.6 nM; Kd [15]: 20.4 nM; Kd [16]: 16.7 nM; Kd [17]: 25.7 nM; Kd [8]: 20.1 nM; Kd [18]: 15.7 nM	IgG1-7D8-I253A (antibody)
	> 30	3.33	> 30	157	157	EC50 [2]: 3.84 µg/mL; Kd [3]: 146 nM; Kd [15]: 176 nM; Kd [17]: 172 nM; Kd [7]: 70 nM; Kd [8]: 85.2 nM; Kd [18]: 205 nM	IgG1-7D8-I253D (antibody)
	> 30	4.77	> 30	5290		Kd [13]: 10300 nM; Kd [4]: 246 nM; Kd [19]: 5290 nM	IgG1-7D8-I253D/H433A (antibody)
	16.1	1.77	28.9	41.3	41.3	EC50 [2]: 2.21 µg/mL; Kd [3]: 58.5 nM; Kd [14]: 38.7 nM; Kd [15]: 37 nM; Kd [16]: 21.1 nM; Kd [17]: 45.6 nM; Kd [7]: 24.3 nM; Kd [8]: 46.2 nM; Kd [18]: 48.7 nM	IgG1-7D8-I253Y (antibody)
	> 30	> 30	> 30				IgG1-7D8-K322A (antibody)
	> 30	2.34	21.5	361	361	Kd [13]: 418 nM; Kd [4]: 304 nM	IgG1-7D8-K439E (antibody)
	1.33	0.48	1.58			Kd [13]: 3.6 nM	IgG1-7D8-K439E + IgG1-7D8-S440K mix
	0.09	0.33	1.34	2.6	2.6	Kd [13]: 4.6 nM; Kd [9]: 1.63 nM; Kd [5]: 2.9 nM; Kd [12]: 1.01 nM	IgG1-7D8-K439E/S440K (antibody)
	21.2	1.77		42.6	42.6	EC50 [2]: 2.12 µg/mL; Kd [3]: 36.7 nM; Kd [14]: 44.9 nM; Kd [15]: 47.8 nM; Kd [16]: 28.3 nM; Kd [17]: 46.7 nM; Kd [7]: 35.9 nM; Kd [8]: 35.2 nM; Kd [18]: 48.7 nM	IgG1-7D8-N434A (antibody)
	0.63	0.42	1.72	10.7	10.7	Kd [3]: 14.3 nM; Kd [15]: 13 nM; Kd [17]: 10.1 nM; Kd [7]: 4.1 nM; Kd [8]: 12.2 nM	IgG1-7D8-Q311A (antibody)
	> 30	1.78	19.5	109	109	Kd [13]: 170 nM; Kd [4]: 48 nM	IgG1-7D8-S440K (antibody)
	> 30	1.88	16.6	468	468	Kd [13]: 431 nM; Kd [4]: 504 nM	IgG1-7D8-Y436D (antibody)
				7.2		Kd [13]: 5.4 nM; Kd [5]: 12.8 nM; Kd [12]: 2.7 nM; Kd [20]: 12.5 nM	Ofatumumab (antibody)
